Experiments:
[1] = target: spin labeled L705C mutant of C99 (human) (UniProt P05067); experiment: continuous wave EPR of spin labeled protein
[2] = target: spin labeled S697C mutant of C99 (human) (UniProt P05067); experiment: continuous wave EPR of spin labeled protein

Substance | KD, average of four fits (sites S697C and L705C, two fields each) [1] [mol%] | KD, average of four fits (sites S697C and L705C, two fields each) [2] [mol%]
spin labeled L705C mutant of C99 (from UniProt P05067 672-770) (domain or fragment) | 0.44 | –
spin labeled S697C mutant of C99 (from UniProt P05067 672-770) (domain or fragment) | – | 0.44

Source: PMC3758481
